The source of these data is publication PMC6958382, “27th Annual GP2A Medicinal Chemistry Conference” (Pharmaceuticals, 2019).

In the test the target is T1, β2-adrenergic receptor (β2-AR) (Homo sapiens (assumed), UniProt P07550).
T1 construct: β2-adrenoceptor (β2-AR), crystallised in the active state with a catecholamine-type agonist (super-epi or super-iso) and Nb6B9; Conference abstract (poster P20) with no methods; also called ß2-AR
The test is described as follows: crystal structure; co-crystal structures of β2-AR with super-epi or super-iso, bound to Nb6B9; active state of the receptor (Figure 17 legend). The note with it: both partners purified.

B1: Nb6B9 (VHH)
VHH: QVQLQESGGGLVQAGGSLRLSCAASGSIFALNIMGWYRQAPGKQRELVAAIHSGGTTNYANSVKGRFTISRDNAANTVYLQMNSLKPEDTAVYYCNVKDFGAIIYDYDYWGQGTQVTVSS
Take B1: the binding result is “binds”.
